On to bovine alkaline phosphatase, for which the Dephosphorylation T50 (mins.) pH 7.4 in the data set on phospho-Ser^8-glucagon came to 94.9 min; in the data set with phospho-Thr^5-glucagon, 85.9 min.

phospho-Thr^5-glucagon, sequence (chain, as listed by the source): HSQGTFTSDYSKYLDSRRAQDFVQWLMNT
